Biological target: FGFR1 extracellular domain (human, UniProt P11362 22-376)
Assay: SPR; 1:1 model; ka 2.20E10 1/Ms, kd 54.9 1/s; SPR: Biacore T200, CM5 amine coupling, HBS running buffer (pH, salt, temperature not stated); flow cytometry: PBS, 1% BSA, 0.1% sodium azide, room temperature
Settings: protein: commercial; stem-loop (Mfold)

Sequence of FGFR1 extracellular domain (P11362 22-376): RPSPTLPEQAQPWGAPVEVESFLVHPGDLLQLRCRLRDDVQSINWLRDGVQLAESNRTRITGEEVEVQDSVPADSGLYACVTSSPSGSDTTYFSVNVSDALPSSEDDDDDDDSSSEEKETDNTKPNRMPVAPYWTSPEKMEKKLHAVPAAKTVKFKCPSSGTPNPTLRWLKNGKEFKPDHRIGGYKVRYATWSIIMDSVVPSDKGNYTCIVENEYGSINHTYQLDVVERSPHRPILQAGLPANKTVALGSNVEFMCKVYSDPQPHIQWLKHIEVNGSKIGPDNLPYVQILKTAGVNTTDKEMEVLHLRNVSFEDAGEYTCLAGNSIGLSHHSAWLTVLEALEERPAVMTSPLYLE

GCCGCGTCTTTATGGCTGGGGATGGTGTGGGTTGCGGC (structured_DNA) [FGFR-binder]
Kd: 2.5 nM
